How the values were obtained:
PIV1014 = molecular target: T1, PIV1014 (PIV1); assay: BLI, 53C stress;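 note: binding of thermally stressed PIV1 F mutant supernatant to mAb on AHC biosensors for 5 min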
T1 construct: Q92C-G134C
Experimental: (§1) All measurements were conducted at 30° C. temperature in 96-well black plates (Corning, Corning, NY) with a final volume of 240 μL per well at a constant agitation rate of 1000 RPM.
(§2) Conformation integrity of PIV1 F protein mutants were evaluated by a thermal stress experiment. Crude cell culture supernatants were normalized based on the results of the titer quantitation and then incubated for 1 hour at room temperature and two higher temperatures. For the initial testing of PIV1 mutants, the two temperatures were 50° C. and 53° C. […] Anti-Human IgG Fc Capture (AHC) biosensors were first equilibrated in PB for before being dipped into more PB to establish the initial baseline. […] The mAb-bound biosensors were then dipped into the thermal stresses cell culture supernatants for 5 minutes.

PIV1024 = molecular target: T2, PIV1024 (PIV1); assay: BLI, 53C stress;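 note: binding of thermally stressed PIV1 F mutant supernatant to mAb on AHC biosensors for 5 min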
T2 construct: A466V
Experimental: as §1, §2

PIV1031 = molecular target: T3, PIV1031 (PIV1); assay: BLI, 53C stress;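 note: binding of thermally stressed PIV1 F mutant supernatant to mAb on AHC biosensors for 5 min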
T3 construct: A466L, S473L
Experimental: as §1, §2

PIV1023 = molecular target: T4, PIV1023 (PIV1); assay: BLI, 53C stress;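 note: binding of thermally stressed PIV1 F mutant supernatant to mAb on AHC biosensors for 5 min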
T4 construct: A466L
Experimental: as §1, §2

PIV1039 = molecular target: T5, PIV1039 (PIV1); assay: BLI, 53C stress
T5 construct: A128P
Experimental: as §1, §2

PIV1028 = molecular target: T6, PIV1028 (PIV1); assay: BLI, 53C stress
T6 construct: A480L
Experimental: as §1, §2

PIV1030 = molecular target: T7, PIV1030 (PIV1); assay: BLI, 53C stress
T7 construct: A466L, S473A
Experimental: as §1, §2

PIV1026 = molecular target: T8, PIV1026 (PIV1); assay: BLI, 53C stress
T8 construct: S473V
Experimental: as §1, §2

PIV1036 = molecular target: T9, PIV1036 (PIV1); assay: BLI, 53C stress
T9 construct: G134A
Experimental: as §1, §2

PIV1033 = molecular target: T10, PIV1033 (PIV1); assay: BLI, 53C stress
T10 construct: T198A
Experimental: as §1, §2

PIV1027 = molecular target: T11, PIV1027 (PIV1); assay: BLI, 53C stress
T11 construct: S473L
Experimental: as §1, §2

hMPV121 = molecular target: T12, hMPV121 (hMPV B, UniProt Q6WB98 19-102); assay: BLI, 56C stress
T12 construct: L141C-A161C, T411C-Q434C
Experimental: as §1
(§3) Conformation integrity of hMPV B F protein mutants were evaluated by a thermal stress experiment. Crude cell culture supernatants were normalized based on the results of the titer quantitation and then incubated for 1 hour at room temperature and two higher temperatures. For the testing of hMPV B single mutants, the two temperatures were 53° C. and 56° C. After the incubation, the protein mutants were probed with prefusion specific monoclonal antibody hMPV-2 by OCTET HTX. Anti-Human IgG Fc Capture (AHC) biosensors were first equilibrated in PB before being dipped into more PB for to establish the initial baseline. Biosensors were incubated with hMPV-2 before being equilibrated in PB to establish the experimental baseline. The mAb-bound biosensors were then dipped into the thermal stresses cell culture supernatants for 5 minutes.

hMPV120 = molecular target: T13, hMPV120 (hMPV B, UniProt Q6WB98 19-102); assay: BLI, 56C stress
T13 construct: A140C-S149C, T411C-Q434C
Experimental: as §1, §3

hMPV B F WT Control = hMPV B F WT Control (hMPV B, UniProt Q6WB98 19-102); assay: BLI, 56C stress
Experimental: as §1, §3

hMPV130 = molecular target: T14, hMPV130 (hMPV B, UniProt Q6WB98 19-102); assay: BLI, 56C stress
T14 construct: L141C-A161C, G239A, T411C-Q434C, A459P
Experimental: as §1, §3

hMPV139 = molecular target: T15, hMPV139 (hMPV B, UniProt Q6WB98 19-102); assay: BLI, 56C stress
T15 construct: T49I, L141C-A161C, T411C-Q434C
Experimental: as §1, §3

hMPV132 = molecular target: T16, hMPV132 (hMPV B, UniProt Q6WB98 19-102); assay: BLI, 56C stress
T16 construct: L141C-A161C, S149T, G239A, T411C-Q434C, A459P
Experimental: as §1, §3

hMPV063 = molecular target: T17, hMPV063 (hMPV A, UniProt Q6WB98 19-102); assay: BLI, 53C stress
T17 construct: G239A
Experimental: (§4) The OCTET HTX (Sartorius, Gottingen, Germany) instrument was used to evaluate the expression and conformational integrity for each mutant. All measurements were conducted at 30° C. temperature in 96-well black plates (Corning, Corning, NY) with a final volume of 240 μL per well at a constant agitation rate of 1000 RPM.
(§5) Conformation integrity of hMPV A F protein mutants were evaluated by thermal stress experiments. Crude cell culture supernatants were normalized based on the results of the titer quantitation and then incubated for 1 hour at room temperature and two higher temperatures. […] Anti-Human IgG Fc Capture (AHC) biosensors were first equilibrated in PB before being dipped into more PB to establish the initial baseline. […] The mAb-bound biosensors were then dipped into the thermal stressed cell culture supernatants for 5 minutes. The kinetics analysis was done by OCTET data analysis software (version 12.0, Sartorius) based on curve fitting of the entire associate step.

hMPV043 = molecular target: T18, hMPV043 (hMPV A, UniProt Q6WB98 19-102); assay: BLI, 53C stress
T18 construct: G366C-D454C
Experimental: as §4, §5

hMPV066 = molecular target: T19, hMPV066 (hMPV A, UniProt Q6WB98 19-102); assay: BLI, 53C stress
T19 construct: T49I
Experimental: as §4, §5

hMPV049 = molecular target: T20, hMPV049 (hMPV A, UniProt Q6WB98 19-102); assay: BLI, 53C stress
T20 construct: E146C-T160C
Experimental: as §4, §5

hMPV048 = molecular target: T21, hMPV048 (hMPV A, UniProt Q6WB98 19-102); assay: BLI, 53C stress
T21 construct: L141C-A161C
Experimental: as §4, §5

hMPV053 = molecular target: T22, hMPV053 (hMPV A, UniProt Q6WB98 19-102); assay: BLI, 53C stress
T22 construct: L110P
Experimental: as §4, §5

hMPV052 = molecular target: T23, hMPV052 (hMPV A, UniProt Q6WB98 19-102); assay: BLI, 53C stress
T23 construct: L66P
Experimental: as §4, §5

hMPV044 = molecular target: T24, hMPV044 (hMPV A, UniProt Q6WB98 19-102); assay: BLI, 53C stress
T24 construct: T411C-Q434C
Experimental: as §4, §5

hMPV077 = molecular target: T25, hMPV077 (hMPV A, UniProt Q6WB98 19-102); assay: BLI, 53C stress
T25 construct: Q476C, S477C
Experimental: as §4, §5

hMPV067 = molecular target: T26, hMPV067 (hMPV A, UniProt Q6WB98 19-102); assay: BLI, 53C stress
T26 construct: S149T
Experimental: as §4, §5

hMPV071 = molecular target: T27, hMPV071 (hMPV A, UniProt Q6WB98 19-102); assay: BLI, 53C stress
T27 construct: T365I
Experimental: as §4, §5

hMPV054 = molecular target: T28, hMPV054 (hMPV A, UniProt Q6WB98 19-102); assay: BLI, 53C stress
T28 construct: S132P
Experimental: as §4, §5

hMPV045 = molecular target: T29, hMPV045 (hMPV A, UniProt Q6WB98 19-102); assay: BLI, 53C stress
T29 construct: I137C-A159C
Experimental: as §4, §5

hMPV059 = molecular target: T30, hMPV059 (hMPV A, UniProt Q6WB98 19-102); assay: BLI, 53C stress
T30 construct: V449P
Experimental: as §4, §5

hMPV055 = molecular target: T31, hMPV055 (hMPV A, UniProt Q6WB98 19-102); assay: BLI, 53C stress
T31 construct: N145P
Experimental: as §4, §5

hMPV069 = molecular target: T32, hMPV069 (hMPV A, UniProt Q6WB98 19-102); assay: BLI, 53C stress
T32 construct: S291I
Experimental: as §4, §5

hMPV068 = molecular target: T33, hMPV068 (hMPV A, UniProt Q6WB98 19-102); assay: BLI, 53C stress
T33 construct: A159V
Experimental: as §4, §5

hMPV075 = molecular target: T34, hMPV075 (hMPV A, UniProt Q6WB98 19-102); assay: BLI, 53C stress
T34 construct: L473F
Experimental: as §4, §5

hMPV A F WT Control = hMPV A F WT Control (hMPV A, UniProt Q6WB98 19-102); assay: BLI, 53C stress
Experimental: as §4, §5

hMPV046 = molecular target: T35, hMPV046 (hMPV A, UniProt Q6WB98 19-102); assay: BLI, 53C stress
T35 construct: A140C-S149C
Experimental: as §4, §5

hMPV058 = molecular target: T36, hMPV058 (hMPV A, UniProt Q6WB98 19-102); assay: BLI, 53C stress
T36 construct: L187P
Experimental: as §4, §5

B1: PIV1-8 mAb (antibody, V domains shown)
VH: QVQLVQSGAEVKKPGSSVKVSCEASGGTFSNYVISWVRQAPGQGLEWMGGIIPVFATAKYAQKFQGRVTIIADQSTNTAYLELSSLRSDDTAVYFCASVDSGGTWWDAFAIWGQGTMVTVSS
VL: QAVVTQPRSVSGSPGQAVTISCTGTSSDVGGYNYVSWYQHHPGKAPKLIIYDVTKRPSGVPDRFSGSKSGNTASLTISGLQTEYEADYYCCSYAGSYTLVFGGGTKLTVLG
notes: human IgG1; also called hPIV1-8 mAb; hPIV1-8
For B1, the “Response Shift” value (PIV1014) was 0.009 nm, the “Response Shift” value (PIV1024) was -0.016 nm and the “Response Shift” value (PIV1031) was 0.489 nm. The “Response Shift” value (PIV1023) was -0.001 nm, the “Response Shift” value (PIV1039) was -0.055 nm and the “Response Shift” value (PIV1028) was -0.052 nm. The “Response Shift” value (PIV1030) was -0.046 nm, the “Response Shift” value (PIV1026) was -0.039 nm and the “Response Shift” value (PIV1036) was -0.042 nm. The “Response Shift” value (PIV1033) was -0.073 nm and the “Response Shift” value (PIV1027) was -0.02 nm.

B2: hMPV-2 mAb (antibody, V domains shown)
VH: QVQLQQSGAEVKKPGASVKVSCKASGYTFTSYGISWVRQAPGQGLEWMGWISGYNGNTNYAQTFQGTFTMTTDTSTSTAYMELRRLRSGDTAVYYCARDRYYASGSYNGMDVWGQGTTVTVSS
VL: QSALTQPPSASGAPGQRVTVSCSGSSSNVGSSSVYWYQQLPGTAPKLLIYRNNQRPSGVPDRFSGSKSGTSASLAISGLRSEDEADYYCAAWDDSLSGWVFGGGTKLTVLG
notes: human IgG1
With B2 the “Response Shift” value (hMPV121) was 0.794 nm, the “Response Shift” value (hMPV120) was 0.564 nm and the “Response Shift” value (hMPV B F WT Control) was 0.122 nm. For the same binder, the “Response Shift” value (hMPV130) was 0.62 nm, the “Response Shift” value (hMPV139) was 0.65 nm and the “Response Shift” value (hMPV132) was 0.694 nm. The “Response Shift” value (hMPV063) was 0.001 nm, the “Response Shift” value (hMPV043) was 0.03 nm and the “Response Shift” value (hMPV066) was 0.265 nm. The “Response Shift” value (hMPV049) was -0.011 nm, the “Response Shift” value (hMPV048) was -0.059 nm and the “Response Shift” value (hMPV053) was 0.017 nm. The “Response Shift” value (hMPV052) was -0.044 nm, the “Response Shift” value (hMPV044) was 0.618 nm and the “Response Shift” value (hMPV077) was -0.007 nm. The “Response Shift” value (hMPV067) was 0.184 nm, the “Response Shift” value (hMPV071) was -0.046 nm and the “Response Shift” value (hMPV054) was -0.072 nm. For the same binder, the “Response Shift” value (hMPV045) was -0.048 nm, the “Response Shift” value (hMPV059) was -0.051 nm and the “Response Shift” value (hMPV055) was -0.073 nm. The “Response Shift” value (hMPV069) was -0.005 nm, the “Response Shift” value (hMPV068) was 0.022 nm and the “Response Shift” value (hMPV075) was -0.082 nm. For the same binder, the “Response Shift” value (hMPV A F WT Control) was -0.026 nm, the “Response Shift” value (hMPV046) was 0.196 nm and the “Response Shift” value (hMPV058) was -0.052 nm.

From patent US20240252614A1 (Pfizer, published 2024)
